Measurements: paper PMC11477680, “A Label-Free Electrochemical Aptamer Sensor for Sensitive Detection of Cardiac Troponin I Based on AuNPs/PB/PS/GCE”

Experiments:
[1] = biological target: cardiac troponin I (cTnI) (UniProt P19429 2-210); test: electrochemical aptasensor (DPV, CV, EIS); DPV response 10 fg/mL-1.0 ug/mL, LOD 2.03 fg/mL; Rct 514 to 606 ohm with 100 ng/mL cTnI; Aptamer immobilization: 20 mM Tris-HCl, 5 mM MgCl2, 50 mM NaCl, pH 7.4, 4 C; cTnI incubation 1 h (serum samples: 10% serum in 20 mM Tris-HCl, 150 mM NaCl, pH 7.4, 37 C); DPV read in 0.8 M KNO3, CV/EIS in 0.1 M PBS with 5 mM [Fe(CN)6]3-/4-; settings: protein: commercial
myoglobin (Myo) = biological target: T1, myoglobin (Myo) (UniProt P02144 2-154); test: electrochemical aptasensor (DPV); 1 ng/mL; negligible current change; Aptamer immobilization: 20 mM Tris-HCl, 5 mM MgCl2, 50 mM NaCl, pH 7.4, 4 C; cTnI incubation 1 h (serum samples: 10% serum in 20 mM Tris-HCl, 150 mM NaCl, pH 7.4, 37 C); DPV read in 0.8 M KNO3, CV/EIS in 0.1 M PBS with 5 mM [Fe(CN)6]3-/4-; settings: protein: commercial
T1 sequence: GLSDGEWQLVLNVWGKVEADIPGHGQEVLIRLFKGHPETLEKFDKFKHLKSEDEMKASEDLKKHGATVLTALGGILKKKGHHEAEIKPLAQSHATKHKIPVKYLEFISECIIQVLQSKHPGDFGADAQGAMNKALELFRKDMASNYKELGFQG

cardiac troponin I (cTnI), sequence (P19429 2-210): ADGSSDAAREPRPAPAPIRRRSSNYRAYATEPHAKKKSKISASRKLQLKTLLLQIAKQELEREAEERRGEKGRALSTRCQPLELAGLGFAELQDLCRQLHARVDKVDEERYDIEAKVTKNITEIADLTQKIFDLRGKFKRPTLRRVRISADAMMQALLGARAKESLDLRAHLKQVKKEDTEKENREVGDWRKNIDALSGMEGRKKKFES

B1: Tro4 (ssDNA)
DNA: CGTGCAGTACGCCAACCTTTCTCATGCGCTGCCCCCCTCTTA
modifications: 5'-SH-(C6) thiol linker
B1: binds [1]; no binding (myoglobin (Myo)).
